The record followed here is patent publication US20040022780A1, “Serine protease and topical retinoid compositions useful for treatment of acne vulgarise and production of anti-aging effects” (priority 1997, published 2004).

One experiment has as its system Rhino mouse skin. In words: Cutometer analysis of skin elasticity, Rhino mouse. Format: in vivo. As for the experimental part:
(§1) To quantitate this effect, a cutometer analysis was performed. We used a cutometer available from Acaderm (Menlo Park, Calif.), and employed the methods described in Couturaud et al., “Skin Biomechanical Properties: In Vivo Evaluation of Influence of Age and Body Site by a Non-Invasive Method,” 1 Skin Res. and Technol. 68-73 (1995) and Elsner et al., “Mechanical Properties of Human Forearm and Vulvar Skin,” 122 Br. J. Dermatol. 607-614 (1990) which are both incorporated herein by reference in their entirety. Suction was applied through a 2 mm aperture and the corresponding skin displacement and recovery after release of the negative pressure were measured. In human studies, an improvement in the ratios of deformation parameters Ua/Uf (skin fatigue, or total recovery from the load), Ur/Uf (biological elasticity, or elastic recovery after loading), and Ur/Ue (firmness, or improvement in the deformation resistance of the skin) indicates better tonicity and elasticity of the skin. The deformation parameters Ue, Uf, Ua, and Ur are dependent, in part, on skin thickness. Consequently, ratios were used for evaluation as described in Barel et al., “Suction Method for Measurement of Skin Mechanical Properties: The Cutometer,” Handbook of Non-Invasive Methods and the Skin 335-340 (1995) which is incorporated herein by reference in its entirety.

The test system of the next experiment is C57B1/6 skin. In words: Cutometer analysis of skin elasticity, C57B1/6 mouse. In kind it is in vivo, C57B1/6 mice. The note with it: Day 16, trypsin treated. The procedure:
as §1
FIGS. 3(c) and (d), the untreated and trypsin treated skins, respectively, show the results of elastin staining.

B1: trypsin (protein, UniProt P00760 24-246, looked up)
Serine protease 1: IVGGYTCGANTVPYQVSLNSGYHFCGGSLINSQWVVSAAHCYKSGIQVRLGEDNINVVEGNEQFISASKSIVHPSYNSNTLNNDIMLIKLKSAASLNSRVASISLPTSCASAGTQCLISGWGNTKSSGTSYPDVLKCLKAPILSDSSCKSAYPGQITSNMFCAGYLEGGKDSCQGDSGGPVVCSGKLQGIVSWGSGCAQKNKPGVYTKVCNYVSWIKQTIASN
notes: lyophilyzed trypsin from Sigma-Aldrich, a serine protease, in Hepes buffer mixed with GDL liposomes
Regarding B1, the “Ua/Uf (skin fatigue, total recovery from the load)” value was 0.593 ± 0.09 in the experiment on Rhino mouse skin (Day 7, trypsin treated); 0.663 ± 0.10 with Rhino mouse skin (Day 12, trypsin treated); 0.675 ± 0.03 in the experiment on Rhino mouse skin (Day 16, trypsin treated); 0.675 ± 0.18 in the experiment on C57B1/6 skin. Further, the “Ur/Ue (firmness)” value with Rhino mouse skin (Day 7, trypsin treated) is reported as 0.557 ± 0.21; with Rhino mouse skin (Day 12, trypsin treated), 0.666 ± 0.24; in the experiment with Rhino mouse skin (Day 16, trypsin treated) it was 0.733 ± 0.18; with C57B1/6 skin it was 0.7335 ± 0.02. Moreover, the “Ur/Uf (biological elasticity)” value in the experiment on Rhino mouse skin (Day 7, trypsin treated) is reported as 0.359 ± 0.22; with Rhino mouse skin (Day 12, trypsin treated), 0.548 ± 0.11; in the experiment on Rhino mouse skin (Day 16, trypsin treated) it was 0.404 ± 0.08; in the experiment on C57B1/6 skin, 0.404 ± 0.1.
